B1: 371_C12 (antibody, V domains shown)
VH: EVQLLESGGGLVQPGGSLRLSCAASGFTFSSYSMNWVRQAPGKGLEWVAGINYNSGYKSYADSVKGRFTISRDNSKNTLYLQMNSLRAEDTAVYYCARGANWHDTHLDYWGQGTLVTVSS
VL: DIQMTQSPSSLSASVGDRVTITCRASQSIVSYVNWYQQKPGKAPKLLIYAATSRASGVPSRFSGSGSGTDFTLTISSLQPEDFATYYCQQSYDTPLTFGGGTKVEIK
notes: Group III
B2: 373_A05 (antibody, V domains shown)
VH: B1 VH with S31D, A49S
VL: B1 VL with V30L, L47V, A55H, D93E, T94S
notes: Group III
B3: 373_B07 (antibody, V domains shown)
VH: B1 VH with S30D, A49S, S55G, K58T, H106A
VL: B1 VL with V30L, S31T, L47V, D93E, T94L
notes: Group III
B4: 373_A12 (antibody, V domains shown)
VH: B1 VH with A49S, G50S, S55G, K58T, H106A
VL: B1 VL with V30L, S31T, V33L, L47V
notes: Group III
B5: 372_C06 (antibody, V domains shown)
VH: B1 VH with S31D, A49S, S55G, K58T, H106A
VL: B1 VL with D93S, T94S
notes: Group III
B6: 371_G02 (antibody, V domains shown)
VH: B1 VH with S30D, S33G, G50S, S55G, K58T
VL: B1 VL with V30L, V33L, T94L
notes: Group III
B7: 372_D03 (antibody, V domains shown)
VH: B1 VH with H106A
VL: B1 VL with V30L, L47V, A51V, A55H, T94S
notes: Group III
B8: 371_H04 (antibody, V domains shown)
VH: B1 VH with S33G, A49S, G50N, S55G, K58T, S59G, H106A
VL: B1 VL with V30L, S31T, V33L, D93N, T94S
notes: Group III
B9: 372_B02 (antibody, V domains shown)
VH: B1 VH with A49S, K58T, H106A
VL: B1 VL with V30L, A51V, R54L, D93E
notes: Group III
B10: 371_H06 (antibody, V domains shown)
VH: B1 VH with S30D, S33G, A49S, S55G, K58T, H106A
VL: B1 VL with V30S, V33L, L47V, A51V, T94L
notes: Group III
B11: 371_D04 (antibody, V domains shown)
VH: B1 VH with S30D, S31D, S55G, K58T, S59G
VL: B1 VL with R54L, D93E, T94N
notes: Group III
B12: 372_E01 (antibody, V domains shown)
VH: B1 VH with S30D, S31D, A49S, S55G, S59G, H106A
VL: B1 VL with V33L, L47V, A55H, T94S
notes: Group III
B13: 371_F10 (antibody, V domains shown)
VH: B1 VH with S30D, S33G, A49S, K58T, H106A
VL: B1 VL with V30S, V33L, L47V, A51V, D93E, T94S
notes: Group III
B14: 371_D02 (antibody, V domains shown)
VH: B1 VH with S30D, S31D, S55G, H106A
VL: B1 VL with S31T, V33L, T94S
notes: Group III
B15: 373_C03 (antibody, V domains shown)
VH: B1 VH with A49S, S55G, H106A
VL: B1 VL with S31T, V33L, L47V, T94S
notes: Group III
B16: 373_A11 (antibody, V domains shown)
VH: B1 VH with S31N, S33G, G50N, S55G, K58T, S59G, H106A
VL: B1 VL with V30L, S31T, V33L, T94L
notes: Group III
B17: 371_G11 (antibody, V domains shown)
VH: B1 VH with S33G, A49S, G50N, K58T, H106A
VL: B1 VL with V30L, R54L, T94S
notes: Group III
B18: 373_A01 (antibody, V domains shown)
VH: B1 VH with S33G, A49S, G50N, S55G, K58T, S59G
VL: B1 VL with S31T, V33L, L47V, A51T, D93N, T94L
notes: Group III
B19: 371_F11 (antibody, V domains shown)
VH: B1 VH with A49S, S55G, K58T, H106A
VL: B1 VL with V30I, A51V, T94L
notes: Group III
B20: 371_H05 (antibody, V domains shown)
VH: B1 VH with S33G, A49S, H106A
VL: B1 VL with V30I, V33L, R54L, D93S, T94L
notes: Group III
B21: 373_A09 (antibody, V domains shown)
VH: B1 VH with S30D, S55G, K58T, H106A
VL: B1 VL with V30L, S31T, V33L, R54L
notes: Group III
B22: 371_G04 (antibody, V domains shown)
VH: B1 VH with S30D, A49S, S55G, H106A
VL: B1 VL with V30L, V33L, R54L, A55H, D93E, T94S
notes: Group III
B23: 372_G12 (antibody, V domains shown)
VH: B1 VH with S30D, S55G, K58T, S59G
VL: B1 VL with V30L, S31T, V33L, L47V, A55H, T94S
notes: Group III
B24: 373_A03 (antibody, V domains shown)
VH: B1 VH with S31D, G50N, S55G, K58T, S59G, H106A
VL: B1 VL with V30L, V33L, L47V, T94N
notes: Group III
B25: 371_E07 (antibody, V domains shown)
VH: B1 VH with S30D, S55G, K58T, H106A
VL: B1 VL with V30I, V33L, R54L, D93E, T94S
notes: Group III
B26: 371_E10 (antibody, V domains shown)
VH: B1 VH with S30D, S55G, K58T, H106A
VL: B1 VL with V30S, S31T, V33L, A51V, D93N, T94S
notes: Group III
B27: 371_G09 (antibody, V domains shown)
VH: B1 VH with G50N, S55G, K58T, S59G, H106A
VL: B1 VL with V30L, V33L, L47V, Y92D, D93S
notes: Group III
B28: 371_H10 (antibody, V domains shown)
VH: B1 VH
VL: B1 VL with V30S, S31T, V33L, A55H, D93E, T94N
notes: Group III
B29: 371_E06 (antibody, V domains shown)
VH: B1 VH with A49S, S55G, K58T, H106A
VL: B1 VL with V30S, S31T, V33L, A51V, R54L, A55H, D93E, T94S
notes: Group III
B30: 371_H08 (antibody, V domains shown)
VH: B1 VH with S33G, G50S, S55G, S59G
VL: B1 VL with V30I, L47V, A51V
notes: Group III
B31: 373_B05 (antibody, V domains shown)
VH: B1 VH with S31D, A49S, G50N, S55G, H106A
VL: B1 VL with S31T, V33L, L47V, D93S, T94N
notes: Group III

Positions count from the first letter of the chain named.
Further: test concentration or dose not given here.

T2 sequence (P27037 20-135 limits assumed): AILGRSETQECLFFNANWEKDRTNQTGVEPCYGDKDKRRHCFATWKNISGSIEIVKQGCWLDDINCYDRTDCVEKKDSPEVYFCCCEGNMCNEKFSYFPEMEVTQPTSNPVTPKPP

The target of one test is T1, mouse ACVR2A (mouse, UniProt P27038 20-135, limits assumed).
T1 construct: coated antigen of the initial ELISA
T1 sequence (P27038 20-135 limits assumed): as the sequence (P27037 20-135 limits assumed) above, with K20R, V73I counted along it
The test is described as follows: ELISA. In a few lines: (§1)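 ELISA measured binding of ACVR2A-specific monoclonal antibodies to human and mouse ACVR2A. Biotinylated goat anti-human kappa light chain served as positive control and human Fc as negative control.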
The molecule B1 came in with an optical density of 3.2 OD.

On to B2, for which the optical density came out at 3.42 OD.

With B3, the optical density stood at 3.61 OD.

Consider B4, for which the optical density was determined as 3.31 OD.

Molecule B5 yielded an optical density of 3.54 OD.

Molecule B6 came in with an optical density of 3.06 OD.

As to B7, the optical density was 3.29 OD.

In the case of B8, the optical density came out at 3.51 OD.

Molecule B9 returned an optical density of 3.51 OD.

As for B10, the optical density is 3.11 OD.

Molecule B11 returned an optical density of 1.29 OD.

On to B12, for which the optical density was determined as 3.34 OD.

As to B13, the optical density turned out to be 2.31 OD.

In turn, B14 showed an optical density of 2.99 OD.

B15 registered an optical density of 3.65 OD.

The molecule B16 had an optical density of 3.68 OD.

B17: the optical density was determined as 2.75 OD.

Turning to B18, the optical density worked out at 3.48 OD.

In turn, B19 had an optical density of 3.25 OD.

Turning to B20, the optical density came out at 1.25 OD.

Take B21: the optical density worked out at 3.62 OD.

Molecule B22 came in with an optical density of 3.58 OD.

In turn, B23 showed an optical density of 2.73 OD.

The molecule B24 came in with an optical density of 3.63 OD.

As for B25, the optical density worked out at 3.35 OD.

Turning to B26, the optical density came to 3.05 OD.

B27: the optical density came to 3.07 OD.

The molecule B28 gave an optical density of 2.55 OD.

Molecule B29 had an optical density of 3.03 OD.

B30 returned an optical density of 2.04 OD.

In turn, B31 displayed an optical density of 3.53 OD.

The next test addresses T2, human ACVR2A (human, UniProt P27037 20-135, limits assumed).
T2 construct: coated antigen of the initial ELISA; also called activin receptor, type II A
The test is described as follows: ELISA. In short, it runs like this:
as §1
(In general: An ELISA detects its analyte on a solid surface through an enzyme-linked reagent.)
B1 gave an optical density of 3.1 OD.

B2 had an optical density of 3.45 OD.

As to B3, the optical density stood at 3.66 OD.

Molecule B4 gave an optical density of 3.59 OD.

Molecule B5 displayed an optical density of 3.21 OD.

Molecule B6 came in with an optical density of 3.12 OD.

Turning to B7, the optical density was determined as 3.04 OD.

Turning to B8, the optical density was 3.26 OD.

B9 came in with an optical density of 3.17 OD.

For B10, the optical density stood at 3.03 OD.

Consider B11, for which the optical density was determined as 1.02 OD.

In turn, B12 showed an optical density of 3.34 OD.

Take B13: the optical density was found to be 2.34 OD.

With B14, the optical density came to 2.94 OD.

B15 displayed an optical density of 3.69 OD.

On to B16, for which the optical density came out at 3.76 OD.

In the case of B17, the optical density was 2.84 OD.

The molecule B18 yielded an optical density of 3.18 OD.

The molecule B19 came in with an optical density of 3.04 OD.

Take B20: the optical density turned out to be 1.2 OD.

B21 showed an optical density of 3.66 OD.

As for B22, the optical density came out at 3.62 OD.

For B23, the optical density amounted to 2.41 OD.

B24 showed an optical density of 3.65 OD.

As to B25, the optical density is 3.09 OD.

The molecule B26 showed an optical density of 3.06 OD.

As for B27, the optical density worked out at 2.75 OD.

Take B28: the optical density is 2.19 OD.

Molecule B29 registered an optical density of 3 OD.

Take B30: the optical density turned out to be 1.66 OD.

In turn, B31 gave an optical density of 3.59 OD.

In the next test the target is T3, biotinylated goat anti-human kappa light chain.
T3 construct: positive control of the ELISA
The test is described as follows: ELISA, positive control. In a few lines:
as §1
B1 gave an optical density of 3.68 OD.

Molecule B2 had an optical density of 3.03 OD.

Take B3: the optical density was determined as 3.3 OD.

The molecule B4 had an optical density of 3.09 OD.

The molecule B5 gave an optical density of 3.49 OD.

B6 gave an optical density of 3.67 OD.

Consider B7, for which the optical density is 3.6 OD.

Turning to B8, the optical density was found to be 3.58 OD.

In the case of B9, the optical density was 3.67 OD.

The molecule B10 displayed an optical density of 3.7 OD.

In the case of B11, the optical density was 3.3 OD.

As to B12, the optical density was 3.6 OD.

As to B13, the optical density came to 3.53 OD.

Regarding B14, the optical density amounted to 3.58 OD.

B15: the optical density stood at 3.3 OD.

B16 showed an optical density of 3.09 OD.

As to B17, the optical density is 3.67 OD.

On to B18, for which the optical density was 2.95 OD.

As to B19, the optical density is 3.68 OD.

B20 registered an optical density of 3.27 OD.

In turn, B21 registered an optical density of 3.11 OD.

B22 returned an optical density of 3.54 OD.

As for B23, the optical density is 3.5 OD.

Turning to B24, the optical density turned out to be 3.08 OD.

B25 yielded an optical density of 3.44 OD.

In the case of B26, the optical density stood at 3.49 OD.

On to B27, for which the optical density amounted to 3.58 OD.

For B28, the optical density amounted to 3.55 OD.

As for B29, the optical density came to 3.44 OD.

Turning to B30, the optical density was 3.47 OD.

Consider B31, for which the optical density amounted to 3.23 OD.

The record behind these values is patent US20210380703A1 (RIGEL PHARMACEUTICALS, published 2021).
